Abundance fitness data for 42 variants are collected here from the Human Domainome abundance scans (Beltran et al. 2025).

B1: KAT8 regulatory NSL complex subunit 2, residues 28 to 91; numbered along this chain, Q9H9L4 (parent)
chain: CAFTHRPCSHPRLEGQEFCIKHILEDKNAPFKQCSYISTKNGKRCPNAAPKPEKKDGVSFCAEH

± gives the uncertainty stated by the source.

Variants of B1 are the subject of this data set. Description: abundance fitness (aPCA) (normalised: wild type 0, dead -1); higher = more abundant; growth selection in yeast, the domain comes from the species named. To be noted: Homo sapiens.
On to CAFTHRPCSHPRLEGQEFCIKHILEDKNAPFKQCSYISTKNGKRCPQAAPKPEKKDGVSFCAEH, for which the abundance fitness was found to be 0.061 ± 0.079.
For the variant CAFTHRPCSHPRLEGQEFCIKHILEDKNAPFKQCSYISTKNGKRCPGAAPKPEKKDGVSFCAEH, the abundance fitness was -0.076 ± 0.073.
The same measure for CAFTHRPCSHPRLEGQEFCIKHILEDKNAPFKQCSYISTKNGKRCPLAAPKPEKKDGVSFCAEH: -0.053 ± 0.047; for CAFTHRPCSHPRLEGQEFCIKHILEDKNAPFKQCSYISTKNGKRCPMAAPKPEKKDGVSFCAEH: -0.074 ± 0.06.
The same measure for CAFTHRPCSHPRLEGQEFCIKHILEDKNAPFKQCSYISTKNGKRCPCAAPKPEKKDGVSFCAEH: -0.029 ± 0.089; for CAFTHRPCSHPRLEGQEFCIKHILEDKNAPFKQCSYISTKNGKRCPWAAPKPEKKDGVSFCAEH: -0.079 ± 0.061.
The same measure for CAFTHRPCSHPRLEGQEFCIKHILEDKNAPFKQCSYISTKNGKRCPHAAPKPEKKDGVSFCAEH: -0.118 ± 0.079; for CAFTHRPCSHPRLEGQEFCIKHILEDKNAPFKQCSYISTKNGKRCPPAAPKPEKKDGVSFCAEH: -0.511 ± 0.073.
In the case of CAFTHRPCSHPRLEGQEFCIKHILEDKNAPFKQCSYISTKNGKRCPNFAPKPEKKDGVSFCAEH, the abundance fitness was -0.204 ± 0.075.
Regarding CAFTHRPCSHPRLEGQEFCIKHILEDKNAPFKQCSYISTKNGKRCPNHAPKPEKKDGVSFCAEH, the abundance fitness is -0.336 ± 0.19.
As for CAFTHRPCSHPRLEGQEFCIKHILEDKNAPFKQCSYISTKNGKRCPNLAPKPEKKDGVSFCAEH, the abundance fitness was -0.16 ± 0.046.
Turning to CAFTHRPCSHPRLEGQEFCIKHILEDKNAPFKQCSYISTKNGKRCPNSAPKPEKKDGVSFCAEH, the abundance fitness is -0.168 ± 0.051.
The same measure for CAFTHRPCSHPRLEGQEFCIKHILEDKNAPFKQCSYISTKNGKRCPNNAPKPEKKDGVSFCAEH: -0.293 ± 0.098; for CAFTHRPCSHPRLEGQEFCIKHILEDKNAPFKQCSYISTKNGKRCPNVAPKPEKKDGVSFCAEH: -0.178 ± 0.056.
The same measure for CAFTHRPCSHPRLEGQEFCIKHILEDKNAPFKQCSYISTKNGKRCPNPAPKPEKKDGVSFCAEH: -0.079 ± 0.054.
Regarding CAFTHRPCSHPRLEGQEFCIKHILEDKNAPFKQCSYISTKNGKRCPNQAPKPEKKDGVSFCAEH, the abundance fitness is -0.238 ± 0.058.
In the case of CAFTHRPCSHPRLEGQEFCIKHILEDKNAPFKQCSYISTKNGKRCPNYAPKPEKKDGVSFCAEH, the abundance fitness is -0.167 ± 0.086.
The same measure for CAFTHRPCSHPRLEGQEFCIKHILEDKNAPFKQCSYISTKNGKRCPNEAPKPEKKDGVSFCAEH: -0.28 ± 0.074; for CAFTHRPCSHPRLEGQEFCIKHILEDKNAPFKQCSYISTKNGKRCPNRAPKPEKKDGVSFCAEH: -0.166 ± 0.045; for CAFTHRPCSHPRLEGQEFCIKHILEDKNAPFKQCSYISTKNGKRCPNWAPKPEKKDGVSFCAEH: -0.333 ± 0.062.
The same measure for CAFTHRPCSHPRLEGQEFCIKHILEDKNAPFKQCSYISTKNGKRCPNCAPKPEKKDGVSFCAEH: -0.078 ± 0.092.
For the variant CAFTHRPCSHPRLEGQEFCIKHILEDKNAPFKQCSYISTKNGKRCPNIAPKPEKKDGVSFCAEH, the abundance fitness is -0.204 ± 0.065.
As for CAFTHRPCSHPRLEGQEFCIKHILEDKNAPFKQCSYISTKNGKRCPNMAPKPEKKDGVSFCAEH, the abundance fitness was -0.159 ± 0.053.
The same measure for CAFTHRPCSHPRLEGQEFCIKHILEDKNAPFKQCSYISTKNGKRCFNAAPKPEKKDGVSFCAEH: -0.148 ± 0.072; for CAFTHRPCSHPRLEGQEFCIKHILEDKNAPFKQCSYISTKNGKRCKNAAPKPEKKDGVSFCAEH: 0.025 ± 0.1; for CAFTHRPCSHPRLEGQEFCIKHILEDKNAPFKQCSYISTKNGKRCRNAAPKPEKKDGVSFCAEH: -0.042 ± 0.043.
In the case of CAFTHRPCSHPRLEGQEFCIKHILEDKNAPFKQCSYISTKNGKRCWNAAPKPEKKDGVSFCAEH, the abundance fitness was -0.024 ± 0.062.
For CAFTHRPCSHPRLEGQEFCIKHILEDKNAPFKQCSYISTKNGKRCINAAPKPEKKDGVSFCAEH, the abundance fitness was -0.073 ± 0.061.
The same measure for CAFTHRPCSHPRLEGQEFCIKHILEDKNAPFKQCSYISTKNGKRCHNAAPKPEKKDGVSFCAEH: -0.165 ± 0.083; for CAFTHRPCSHPRLEGQEFCIKHILEDKNAPFKQCSYISTKNGKRCGNAAPKPEKKDGVSFCAEH: -0.022 ± 0.037; for CAFTHRPCSHPRLEGQEFCIKHILEDKNAPFKQCSYISTKNGKRCSNAAPKPEKKDGVSFCAEH: -0.049 ± 0.04.
The same measure for CAFTHRPCSHPRLEGQEFCIKHILEDKNAPFKQCSYISTKNGKRCVNAAPKPEKKDGVSFCAEH: -0.069 ± 0.068; for CAFTHRPCSHPRLEGQEFCIKHILEDKNAPFKQCSYISTKNGKRCTNAAPKPEKKDGVSFCAEH: -0.049 ± 0.056; for CAFTHRPCSHPRLEGQEFCIKHILEDKNAPFKQCSYISTKNGKRCLNAAPKPEKKDGVSFCAEH: -0.079 ± 0.042.
The same measure for CAFTHRPCSHPRLEGQEFCIKHILEDKNAPFKQCSYISTKNGKRCCNAAPKPEKKDGVSFCAEH: -0.065 ± 0.056; for CAFTHRPCSHPRLEGQEFCIKHILEDKNAPFKQCSYISTKNGKRCANAAPKPEKKDGVSFCAEH: -0.119 ± 0.072; for CAFTHRPCSHPRLEGQEFCIKHILEDKNAPFKQCSYISTKNGKRCYNAAPKPEKKDGVSFCAEH: -0.105 ± 0.065.
With CAFTHRPCSHPRLEGQEFCIKHILEDKNAPFKQCSYISTKNGKRCMNAAPKPEKKDGVSFCAEH, the abundance fitness was -0.1 ± 0.074.
In the case of CAFTHRPCSHPRLEGQEFCIKHILEDKNAPFKQCSYISTKNGKRCQNAAPKPEKKDGVSFCAEH, the abundance fitness was -0.1 ± 0.1.
The same measure for CAFTHRPCSHPRLEGQEFCIKHILEDKNAPFKQCSYISTKNGKRCDNAAPKPEKKDGVSFCAEH: -0.155 ± 0.075.
The same measure for CAFTHRPCSHPRLEGQEFCIKHILEDKNAPFKQCSYISTKNGKRCENAAPKPEKKDGVSFCAEH: -0.031 ± 0.094.
The same measure for CAFTHRPCSHPRLEGQEFCIKHILEDKNAPFKQCSYISTKNGKRCNNAAPKPEKKDGVSFCAEH: -0.014 ± 0.062.
